Numbering of substitutions follows the chain as printed. In names and notes the source's numbering stands.
Test system: engineered chimeric receptor SEQ ID NO: 33 and its mutants (human α7-nAChR ligand binding domain / human GlyRα1 ion pore domain) in Lenti-X 293T cells
Assay: YFP fluorescence quenching anion reporter plate reader assay (percent quench, EC50)
Assay type: cell-based
Settings: for YFP fluorescence quenching using CNL001 (percent quench): receptor named in row; for YFP fluorescence quenching using Varenicline, 3 nM var: ligand Varenicline 3 nM; for YFP fluorescence quenching using Varenicline, 30 nM var: ligand Varenicline 30 nM; for YFP fluorescence quenching using Varenicline, 300 nM var: ligand Varenicline 300 nM; for YFP fluorescence quenching using Varenicline, 500 nM var: ligand Varenicline 500 nM; for YFP fluorescence quenching using Varenicline, 1 uM var: ligand Varenicline 1 uM
Procedure, shortened: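 Percent quench compares mean YFP signal over the final 10 s with the 15 s baseline before ligand, added in iodide-containing extracellular solution (pH 7.2). Cells were LX293T carrying a YFP anion reporter, transiently transfected with the channel construct; plates were preincubated 30 min at 37 °C.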

[1] = 1 nM CNL001, first column so headed
[2] = 1 nM CNL001, second column so headed
[3] = 1 nM brd (TC-5619/Bradanicline)
[4] = 3 nM brd (TC-5619/Bradanicline)
[5] = 10 nM CNL001, first column so headed
[6] = 10 nM CNL001, second column so headed
[7] = 10 nM brd (TC-5619/Bradanicline)
[8] = 30 nM brd (TC-5619/Bradanicline)
[9] = 50 nM CNL001, first column so headed
[10] = 50 nM CNL001, second column so headed
[11] = 100 nM CNL001, first column so headed
[12] = 100 nM CNL001, second column so headed
[13] = 100 nM brd (TC-5619/Bradanicline)
[14] = 300 nM brd (TC-5619/Bradanicline)
[15] = 1 uM CNL001, first column so headed
[16] = 1 uM CNL001, second column so headed

B1: CODA1055: engineered receptor: R101W, Y115E, Y210W in SEQ ID NO: 33 (protein)
chain: MRCSPGGVWLALAASLLHVSLQGEFQRKLYKELVKNYNPLERPVANDSQPLTVYFSLSLLQIMDVDEKNQVLTTNIWLQMSWTDHYLQWNVSEYPGVKTVWFPDGQIWKPDILLENSADERFDATFHTNVLVNSSGHCQYLPPGIFKSSCPMDLKNFPMDVQTCKLKFGSWSYGGWSLDLQMQEADISGYIPNGEWDLVGIPGKRSERFWECCKEPYPDVTFTVTMRRRMGYYLIQMYIPSLLIVILSWISFWINMDAAPARVGLGITTVLTMTTQSSGSRASLPKVSYVKAIDIWMAVCLLFVFSALLEYAAVNFVSRQHKELLRFRRKRRHHKSPMLNLFQEDEAGEGRFNFSAYGMGPACLQAKDGISVKGANNSNTTNPPPAPSKSPEEMRKLFIQRAKKIDKISRIGFPMAFLIFNMFYWIIYKIVRREDVHNQ
modifications: synthetic sequence of chimeric LGIC
[1]
  YFP fluorescence quenching using CNL001 (percent quench): −12.889%
[2]
  YFP fluorescence quenching using CNL001 (percent quench): −13.295%
[3]
  YFP fluorescence quenching using TC-5619/Bradanicline (percent quench): −8.113%
[4]
  YFP fluorescence quenching using TC-5619/Bradanicline (percent quench): −11.136%
[5]
  YFP fluorescence quenching using CNL001 (percent quench): −10.401%
[6]
  YFP fluorescence quenching using CNL001 (percent quench): −7.981%
[7]
  YFP fluorescence quenching using TC-5619/Bradanicline (percent quench): 38.755%
30 nM TC-6683
  YFP fluorescence quenching using TC-6683 (percent quench): −30.056%
[8]
  YFP fluorescence quenching using TC-5619/Bradanicline (percent quench): 39.111%
[9]
  YFP fluorescence quenching using CNL001 (percent quench): −1.972%
[10]
  YFP fluorescence quenching using CNL001 (percent quench): −1.661%
50 nM abt (ABT-126)
  YFP fluorescence quenching using ABT-126 (percent quench): −21.36%
[11]
  YFP fluorescence quenching using CNL001 (percent quench): 0.277%
[12]
  YFP fluorescence quenching using CNL001 (percent quench): 4.325%
100 nM abt (ABT-126)
  YFP fluorescence quenching using ABT-126 (percent quench): −22.28%
[13]
  YFP fluorescence quenching using TC-5619/Bradanicline (percent quench): 61.378%
300 nM TC-6683
  YFP fluorescence quenching using TC-6683 (percent quench): −30.801%
300 nM abt (ABT-126)
  YFP fluorescence quenching using ABT-126 (percent quench): −14.63%
[14]
  YFP fluorescence quenching using TC-5619/Bradanicline (percent quench): 52.398%
[15]
  YFP fluorescence quenching using CNL001 (percent quench): 2.88%
[16]
  YFP fluorescence quenching using CNL001 (percent quench): 3.259%
1 uM abt (ABT-126)
  YFP fluorescence quenching using ABT-126 (percent quench): −7.34%
3 uM TC-6683
  YFP fluorescence quenching using TC-6683 (percent quench): −25.558%
30 uM TC-6683
  YFP fluorescence quenching using TC-6683 (percent quench): −18.295%
100 uM TC-6683
  YFP fluorescence quenching using TC-6683 (percent quench): −17.554%
100 uM ach (acetylcholine)
  YFP fluorescence quenching (percent quench): −15.63%
300 uM ach (acetylcholine)
  YFP fluorescence quenching (percent quench): −12.05%
500 uM ach (acetylcholine)
  YFP fluorescence quenching (percent quench): −12.87%
1 mM ach (acetylcholine)
  YFP fluorescence quenching (percent quench): −11.55%
3 mM ach (acetylcholine)
  YFP fluorescence quenching (percent quench): 12.68%
10 mM ach (acetylcholine)
  YFP fluorescence quenching (percent quench): 37.58%
First column
  YFP fluorescence quenching using Varenicline, 3 nM var: 0.468
  YFP fluorescence quenching using Varenicline, 30 nM var: −15.532
  YFP fluorescence quenching using Varenicline, 300 nM var: −17.027
  YFP fluorescence quenching using Varenicline, 500 nM var: −13.343
  YFP fluorescence quenching using Varenicline, 1 uM var: −6.604
Second column
  YFP fluorescence quenching using Varenicline, 3 nM var: −10.015
  YFP fluorescence quenching using Varenicline, 30 nM var: −14.462
  YFP fluorescence quenching using Varenicline, 300 nM var: −15.59
  YFP fluorescence quenching using Varenicline, 500 nM var: −10.702
  YFP fluorescence quenching using Varenicline, 1 uM var: −7.612

B2: CODA1138: engineered receptor: W77F, R101F, L131D in SEQ ID NO: 33 (protein)
chain: B1 chain with W77F, W101F, E115Y, L131D, W210Y
modifications: synthetic sequence of chimeric LGIC
[1]
  YFP fluorescence quenching using CNL001 (percent quench): −6.175%
[2]
  YFP fluorescence quenching using CNL001 (percent quench): 5.89%
1 nM CNL002
  YFP fluorescence quenching (percent quench): −2.209%
[5]
  YFP fluorescence quenching using CNL001 (percent quench): −2.032%
[6]
  YFP fluorescence quenching using CNL001 (percent quench): 7.601%
10 nM CNL002
  YFP fluorescence quenching (percent quench): 43.044%
[9]
  YFP fluorescence quenching using CNL001 (percent quench): 9.263%
[10]
  YFP fluorescence quenching using CNL001 (percent quench): 4.423%
50 nM CNL002
  YFP fluorescence quenching (percent quench): 73.418%
50 nM abt (ABT-126)
  YFP fluorescence quenching using ABT-126 (percent quench): −11.71%
[11]
  YFP fluorescence quenching using CNL001 (percent quench): 24%
[12]
  YFP fluorescence quenching using CNL001 (percent quench): 30.448%
100 nM CNL002
  YFP fluorescence quenching (percent quench): 81.66%
100 nM abt (ABT-126)
  YFP fluorescence quenching using ABT-126 (percent quench): −5.13%
300 nM abt (ABT-126)
  YFP fluorescence quenching using ABT-126 (percent quench): 15.09%
[15]
  YFP fluorescence quenching using CNL001 (percent quench): 73.823%
[16]
  YFP fluorescence quenching using CNL001 (percent quench): 73.271%
1 uM CNL002
  YFP fluorescence quenching (percent quench): 81.69%
1 uM abt (ABT-126)
  YFP fluorescence quenching using ABT-126 (percent quench): 56.63%
10 uM abt (ABT-126)
  YFP fluorescence quenching using ABT-126 (percent quench): 75.93%
10 uM ach (acetylcholine)
  YFP fluorescence quenching (percent quench): −12.92%
30 uM ach (acetylcholine)
  YFP fluorescence quenching (percent quench): −15.36%
100 uM ach (acetylcholine)
  YFP fluorescence quenching (percent quench): −19.35%
300 uM ach (acetylcholine)
  YFP fluorescence quenching (percent quench): −14.79%
1 mM ach (acetylcholine)
  YFP fluorescence quenching (percent quench): 37.5%
3 mM ach (acetylcholine)
  YFP fluorescence quenching (percent quench): 61.73%
First column
  YFP fluorescence quenching using Varenicline, 3 nM var: 3.893
  YFP fluorescence quenching using Varenicline, 30 nM var: 0.972
  YFP fluorescence quenching using Varenicline, 300 nM var: 2.282
  YFP fluorescence quenching using Varenicline, 500 nM var: 3.637
  YFP fluorescence quenching using Varenicline, 1 uM var: −1.84
Second column
  YFP fluorescence quenching using Varenicline, 3 nM var: 1.107
  YFP fluorescence quenching using Varenicline, 30 nM var: 0.872
  YFP fluorescence quenching using Varenicline, 300 nM var: −0.288
  YFP fluorescence quenching using Varenicline, 500 nM var: −1.804
  YFP fluorescence quenching using Varenicline, 1 uM var: 6.36

B3: CODA1056: engineered receptor: R101F, Y115E, Y210W in SEQ ID NO: 33 (protein)
chain: B1 chain with W101F
modifications: synthetic sequence of chimeric LGIC
[1]
  YFP fluorescence quenching using CNL001 (percent quench): −8.104%
[2]
  YFP fluorescence quenching using CNL001 (percent quench): −12.153%
[3]
  YFP fluorescence quenching using TC-5619/Bradanicline (percent quench): −7.894%
[4]
  YFP fluorescence quenching using TC-5619/Bradanicline (percent quench): −11.812%
[5]
  YFP fluorescence quenching using CNL001 (percent quench): −10.462%
[6]
  YFP fluorescence quenching using CNL001 (percent quench): −4.735%
[7]
  YFP fluorescence quenching using TC-5619/Bradanicline (percent quench): 36.211%
30 nM TC-6683
  YFP fluorescence quenching using TC-6683 (percent quench): −19.889%
[8]
  YFP fluorescence quenching using TC-5619/Bradanicline (percent quench): 40.624%
[9]
  YFP fluorescence quenching using CNL001 (percent quench): −8.617%
[10]
  YFP fluorescence quenching using CNL001 (percent quench): −1.606%
50 nM abt (ABT-126)
  YFP fluorescence quenching using ABT-126 (percent quench): −20.96%
[11]
  YFP fluorescence quenching using CNL001 (percent quench): −1.243%
[12]
  YFP fluorescence quenching using CNL001 (percent quench): 1.838%
100 nM abt (ABT-126)
  YFP fluorescence quenching using ABT-126 (percent quench): −21.95%
[13]
  YFP fluorescence quenching using TC-5619/Bradanicline (percent quench): 65.869%
300 nM TC-6683
  YFP fluorescence quenching using TC-6683 (percent quench): −22.443%
300 nM abt (ABT-126)
  YFP fluorescence quenching using ABT-126 (percent quench): −10.96%
[14]
  YFP fluorescence quenching using TC-5619/Bradanicline (percent quench): 59.661%
[15]
  YFP fluorescence quenching using CNL001 (percent quench): −0.567%
[16]
  YFP fluorescence quenching using CNL001 (percent quench): 4.663%
1 uM abt (ABT-126)
  YFP fluorescence quenching using ABT-126 (percent quench): 10.79%
3 uM TC-6683
  YFP fluorescence quenching using TC-6683 (percent quench): −12.623%
30 uM TC-6683
  YFP fluorescence quenching using TC-6683 (percent quench): −10.728%
100 uM TC-6683
  YFP fluorescence quenching using TC-6683 (percent quench): −10.959%
100 uM ach (acetylcholine)
  YFP fluorescence quenching (percent quench): −20.55%
300 uM ach (acetylcholine)
  YFP fluorescence quenching (percent quench): −19.32%
500 uM ach (acetylcholine)
  YFP fluorescence quenching (percent quench): −19.75%
1 mM ach (acetylcholine)
  YFP fluorescence quenching (percent quench): −14.08%
3 mM ach (acetylcholine)
  YFP fluorescence quenching (percent quench): 14.07%
10 mM ach (acetylcholine)
  YFP fluorescence quenching (percent quench): 25.7%

— patent US20250152742A1, “COMPOSITIONS AND METHODS FOR NEUROLOGICAL DISEASES” (Trames Bio, Inc., priority 2022, published 2025)
